Experiments:
[1] = molecular target: T1, His-SND1 (16-339), SN1/2 domains, wild type (human, UniProt Q7KZF4 16-339); test: GST pull-down on glutathione resin, SDS-PAGE, Coomassie blue; normalised percentage of binding, mean±SEM of three experiments
T1 construct: also called His6-SND1 harboring the SN1/2 domains; not shown: N-terminal His tag (His6, His8 or His) with TEV site, pQlink vector
T1 sequence: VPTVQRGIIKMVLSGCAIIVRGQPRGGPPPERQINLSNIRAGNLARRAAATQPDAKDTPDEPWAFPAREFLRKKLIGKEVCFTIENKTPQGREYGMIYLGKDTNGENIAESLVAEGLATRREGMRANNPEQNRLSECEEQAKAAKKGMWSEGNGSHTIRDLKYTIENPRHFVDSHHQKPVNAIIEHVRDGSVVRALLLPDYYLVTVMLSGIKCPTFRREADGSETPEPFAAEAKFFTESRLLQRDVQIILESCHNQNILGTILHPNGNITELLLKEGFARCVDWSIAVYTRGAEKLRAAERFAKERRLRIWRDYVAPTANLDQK
Description: The proteins bound to GS4B were examined on SDS-PAGE and visualized by Coomassie blue staining. […] The bound proteins were examined as in (FIG. 22A). For both (FIG. 22A) and (FIG. 22B), experiments were repeated three times; representative results are shown. The normalized percentage of binding was averaged from three experiments; mean±SEM was shown below the data. (FIG. 22C) HEK293T cells were transfected with human HA-SND1, WT Myc-MTDH or Myc-MTDH with indicated single point mutation. Lysates were immunoprecipitated with anti-Myc antibody and immunoblotted with the indicated antibodies. (FIG. 22D) HEK293T cells were transfected with human Myc-MTDH, WT HA-SND1 or mutant HA-SND1 with indicated single point mutations or deletions. Lysates were immunoprecipitated with anti-Myc and immunoblotted with the indicated antibodies.
(§1) GST-Mediated Pull-Down Assay: ˜20 μg of GST-MTDH (different truncation forms and site mutants) was bound to 10 μl of glutathione resin via GST tag. The resin was washed with 200 μl assay buffer (25 mM Tris, PH8.0, 150 mM NaCl, 3 mM DTT) three times to remove the excess unbound protein. […] The mixture was washed with 200 μl assay buffer twice before examined by SDS-PAGE, and visualized by Coomassie blue staining. The experiments were repeated 3 times and the ratio of SND1 associated with GST-MTDH was analyzed by ImageJ.
Identification of MTDH and SND1 mutants deficient in binding: To gain insight into how the interface characterized above contributes to MTDH-SND1 interaction, structure-guided mutagenesis studies were performed.

[2] = molecular target: T1, His-SND1 (16-339), SN1/2 domains, wild …; test: GST pull-down of His-SND1 (16-339), SDS-PAGE, Coomassie
Description: as §1

[3] = molecular target: T2, murine SND1, wild type (mouse, UniProt Q78PY7 1-910); test: anti-MTDH co-IP from PyMT;Mtdh-/- MECs reconstituted with murine MTDH, western blot
T2 construct: Endogenous protein of murine PyMT mammary tumor cells; also called SND1 (in PyMT tumor cells); WT shRNA-resistant murine SND1
T2 sequence (looked up): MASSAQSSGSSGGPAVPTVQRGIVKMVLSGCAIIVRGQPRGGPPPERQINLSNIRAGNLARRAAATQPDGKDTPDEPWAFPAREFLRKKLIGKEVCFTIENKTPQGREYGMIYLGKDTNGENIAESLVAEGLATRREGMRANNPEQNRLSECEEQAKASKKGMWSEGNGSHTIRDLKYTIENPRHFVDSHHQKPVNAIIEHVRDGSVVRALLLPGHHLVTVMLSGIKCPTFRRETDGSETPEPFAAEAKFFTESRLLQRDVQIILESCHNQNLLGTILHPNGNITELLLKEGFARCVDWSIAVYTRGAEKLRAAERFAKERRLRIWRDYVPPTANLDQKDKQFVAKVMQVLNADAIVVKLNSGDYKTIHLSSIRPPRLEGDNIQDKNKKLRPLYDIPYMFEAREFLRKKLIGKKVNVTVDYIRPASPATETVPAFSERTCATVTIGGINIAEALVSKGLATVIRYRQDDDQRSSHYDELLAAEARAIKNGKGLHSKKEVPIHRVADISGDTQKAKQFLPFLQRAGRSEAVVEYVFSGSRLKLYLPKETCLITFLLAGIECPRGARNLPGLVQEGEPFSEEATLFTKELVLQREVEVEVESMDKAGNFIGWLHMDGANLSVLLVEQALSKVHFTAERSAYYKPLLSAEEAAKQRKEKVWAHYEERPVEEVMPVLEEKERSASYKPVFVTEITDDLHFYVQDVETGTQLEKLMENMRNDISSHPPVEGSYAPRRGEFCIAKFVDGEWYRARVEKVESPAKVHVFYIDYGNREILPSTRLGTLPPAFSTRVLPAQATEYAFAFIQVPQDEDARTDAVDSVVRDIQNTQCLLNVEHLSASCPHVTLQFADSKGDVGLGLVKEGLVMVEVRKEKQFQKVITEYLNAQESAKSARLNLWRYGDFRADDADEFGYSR
Description: (FIG. 8A, FIG. 8E) Lysates from PyMT;Mtdh−/− MECs reconstituted with vector control, WT or mutant murine MTDH were immunoprecipitated with anti-MTDH antibody and immunoblotted for indicated proteins. (FIG. 8B, FIG. 8F) Mammosphere assays were performed with PyMT;Mtdh−/− pMECs reconstituted with indicated Mtdh constructs. (FIG. 8C, FIG. 8D, FIG. 8G, FIG. 8H) In vivo tumor formation (FIG. 8C, FIG. 8G for tumor incidence; FIG. 8D, FIG. 8H for tumor volumes) were performed at limiting numbers using PyMT;Mtdh−/− pMECs reconstituted with indicated WT or mutant MTDH. *Note: mouse W391D MTDH corresponds to human W394D MTDH; and mouse W398D MTDH corresponds to human W401D MTDH. Statistics: (FIG. 8B, […]) Student's t-test. (FIG. 8C, FIG. 8G) Limiting dilution analysis. (FIG. 8D, FIG. 8H) Mann-Whitney test. Data represent mean±SEM. ***p<0.001, **p<0.01, *p<0.05.
Immunoprecipitation and western blot For immunoprecipitation (IP) experiments, cultured cells were washed in cold PBS and lysed in lysis buffer (20 mM Tris pH 7.4, 0.15 M NaCl, 1 mM EDTA, 1 mM EGTA, 1% Tx-100, 0.0025 M Na2P2O7, 1 mM α-glycerolphosphate, 1 mM Na3VO4, and 1 mM NaF) with an EDTA-free protease inhibitor mixture (Roche Applied Science) and PMSF. Cell lysates were then incubated on ice for 10 min, centrifuged, and precleared by incubating with protein A/G beads (Santa Cruz Biotechnology) for 1 h at 4° C. […]

[4] = molecular target: T3, HA-SND1, full-length human, wild type (human, UniProt Q7KZF4 1-910); test: competition in co-IP, 50 uM peptide; competitor MTDH
T3 construct: Full-length, HA-tagged; Expressed in HEK293T cells, tested in lysate; also called HA-tagged SND1; WT HA-SND1
T3 sequence: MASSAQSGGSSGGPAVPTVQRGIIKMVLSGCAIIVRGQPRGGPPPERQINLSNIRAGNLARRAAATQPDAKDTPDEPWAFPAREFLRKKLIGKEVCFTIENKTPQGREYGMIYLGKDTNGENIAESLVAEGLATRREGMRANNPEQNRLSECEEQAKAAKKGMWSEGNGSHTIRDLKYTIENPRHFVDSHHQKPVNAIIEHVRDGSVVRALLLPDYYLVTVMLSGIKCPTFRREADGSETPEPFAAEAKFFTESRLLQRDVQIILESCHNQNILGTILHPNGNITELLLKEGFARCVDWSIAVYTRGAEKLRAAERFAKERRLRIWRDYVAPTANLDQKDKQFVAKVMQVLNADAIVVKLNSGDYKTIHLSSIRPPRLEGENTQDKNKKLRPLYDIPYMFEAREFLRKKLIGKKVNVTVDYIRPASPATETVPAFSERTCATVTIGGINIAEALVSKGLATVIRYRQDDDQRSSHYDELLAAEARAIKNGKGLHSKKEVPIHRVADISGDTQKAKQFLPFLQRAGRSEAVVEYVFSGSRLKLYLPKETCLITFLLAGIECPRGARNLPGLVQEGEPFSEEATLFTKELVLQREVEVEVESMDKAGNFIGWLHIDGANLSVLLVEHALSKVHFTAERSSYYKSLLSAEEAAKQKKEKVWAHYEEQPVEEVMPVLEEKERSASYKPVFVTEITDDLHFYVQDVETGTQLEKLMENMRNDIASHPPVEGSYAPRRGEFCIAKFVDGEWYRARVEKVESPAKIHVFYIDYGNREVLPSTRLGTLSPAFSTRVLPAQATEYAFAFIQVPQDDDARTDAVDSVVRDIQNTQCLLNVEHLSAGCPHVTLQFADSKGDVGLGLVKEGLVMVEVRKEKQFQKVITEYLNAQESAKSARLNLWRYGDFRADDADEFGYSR
Description: 293 T cells were co-transfected with HA-SND1 and MYC-MTDH. After 48 hours, the cells were collected and subject to immunoprecipitation assay. Cell lysate was incubated with anti-HA antibody or IgG overnight followed by a two hour incubation with Protein A/G beads to pull down HA-SND1 protein. The beads were washed with lysis buffer and split into five fractions.
The elution fractions and beads were collected for western blot. (FIGS. 26C and 26D) Cell lyaste was split into 6 fractions. One of the fractions was incubated with IgG and the rest were incubated with anti-HA antibody plus either buffer or indicated peptides. After 24 hours, the lysate was incubated with Protein A/G beads then the beads was washed followed by wash buffer. 50 uM of peptides was used in all the assays.

B1: GST-MTDH (364-582) W394A (other)
chain: YQWDVSRNQPYIDDEWSGLNGLSSADPNSDANAPAEEWGNWVDEERASLLKSQEPIPDDQKVSDDDKEKGEGALPTGKSKKKKKKKKKQGEDNSTAQDTEELEKEIREDLPVNTSKTRPKQEKAFSLKTISTSDPAEVLVKNSQPIKTLPPATSTEPSVILSKSDSDKSSSQVPPILQETDKSKSNTKQNSVPPSQTKSETSWESPKQIKKKKKARRET
notes: not shown: N-terminal GST tag with TEV site, pQlink vector
[1]
  % Maximum binding: 1%
[2]
  binding result: no binding

B2: W398D* (other, mouse, UniProt Q80WJ7 1-579, looked up)
single chain: MAARSWQDELAQQAEEGSARLRELLSVGLGFLRTELGLDLGLEPKRYPGWVILVGTGALGLLLLFLLGYGWAAACAGARKKRRSPPRKREEAAPPTPAPDDLAQLKNLRSEEQKKKNRKKLPEKPKPNGRTVEVPEDEVVRNPRSITAKQAPETDKKNEKSKKNKKKSKSDAKAVQNSSRHDGKEVDEGAWETKISHREKRQQRKRDKVLTDSGSLDSTIPGIENIITVTTEQLTTASFPVGSKKNKGDSHLNVQVSNFKSGKGDSTLQVSSRLNENLTVNGGGWSEKSVKLSSQLSEEKWNSVPPASAGKRKTEPSAWTQDTGDTNANGKDWGRNWSDRSIFSGIGSTAEPVSQSTTSDYQWDVSRNQPYIDDEWSGLNGLSSADPSSDWNAPAEEDGNWVDEDRASLLKSQEPISNDQKVSDDDKEKGEGALPTGKSKKKKKKKKKQGEDNSHTQDTEDLEKDTREELPVNTSKARPKQEKACSLKTMSTSDPAEVLIKNSQPVKTLPPAISAEPSITLSKGDSDNSSSQVPPMLQDTDKPKSNAKQNSVPPSQTKSETNWESPKQIKKKKKARRET
notes: point mutant W398D, murine numbering; named in the legend's footnote and on the sheet; also called mouse W398D MTDH (corresponds to human W401D MTDH)
[3]
  binding result: no binding

B3: Peptide-401A (PNSDWNAPAEEAGNW) (peptide)
peptide: PNSDWNAPAEEAGNW
notes: also called peptide comprising the single point mutation W401A
[4]
  effectiveness in blocking the MTDH-SND1 interaction relative to the wild type peptide: ~0.5 fold of wild type peptide

— patent US20190336574A1 (TRUSTEES OF PRINCETON UNIVERSITY, published 2019)
